Measured values reported in patent US20160264681A1 (ACCELERON PHARMA, published 2016).
Read-outs that look alike come from different tables or passages of the source.

B1: ActRIIB(20-134)-hFc (Fc fusion)
chain: GRGEAETRECIYYNANWELERTNQSGLERCEGEQDKRLHCYASWRNSSGTIELVKKGCWLDDFNCYDRQECVATEENPQVYFCCCEGNFCNERFTHLPEAGGPEVTYEPPPTAPTGGGTHTCPPCPAPELLGGPSVFLFPPKPKDTLMISRTPEVTCVVVDVSHEDPEVKFNWYVDGVEVHNAKTKPREEQYNSTYRVVSVLTVLHQDWLNGKEYKCKVSNKALPVPIEKTISKAKGQPREPQVYTLPPSREEMTKNQVSLTCLVKGFYPSDIAVEWESNGQPENNYKTTPPVLDSDGSFFLYSKLTVDKSRWQQGNVFSCSVMHEALHNHYTQKSLSLSPGK
B2: ActRIIb-hFc (R64, 20-128) (Fc fusion)
chain: GRGEAETRECIYYNANWELERTNQSGLERCEGEQDKRLHCYASWRNSSGTIELVKKGCWLDDFNCYDRQECVATEENPQVYFCCCEGNFCNERFTHLPEAGGPEVTYEPGGGTHTCPPCPAPELLGGPSVFLFPPKPKDTLMISRTPEVTCVVVDVSHEDPEVKFNWYVDGVEVHNAKTKPREEQYNSTYRVVSVLTVLHQDWLNGKEYKCKVSNKALPVPIEKTISKAKGQPREPQVYTLPPSREEMTKNQVSLTCLVKGFYPSDIAVEWESNGQPENNYKTTPPVLDSDGSFFLYSKLTVDKSRWQQGNVFSCSVMHEALHNHYTQKSLSLSPGK
B3: ActRIIb-hFc (R64, 20-131) (Fc fusion)
chain: GRGEAETRECIYYNANWELERTNQSGLERCEGEQDKRLHCYASWRNSSGTIELVKKGCWLDDFNCYDRQECVATEENPQVYFCCCEGNFCNERFTHLPEAGGPEVTYEPPPTGGGTHTCPPCPAPELLGGPSVFLFPPKPKDTLMISRTPEVTCVVVDVSHEDPEVKFNWYVDGVEVHNAKTKPREEQYNSTYRVVSVLTVLHQDWLNGKEYKCKVSNKALPVPIEKTISKAKGQPREPQVYTLPPSREEMTKNQVSLTCLVKGFYPSDIAVEWESNGQPENNYKTTPPVLDSDGSFFLYSKLTVDKSRWQQGNVFSCSVMHEALHNHYTQKSLSLSPGK
B4: ActRIIb-hFc (R64, 21-131) (Fc fusion)
chain: RGEAETRECIYYNANWELERTNQSGLERCEGEQDKRLHCYASWRNSSGTIELVKKGCWLDDFNCYDRQECVATEENPQVYFCCCEGNFCNERFTHLPEAGGPEVTYEPPPTGGGTHTCPPCPAPELLGGPSVFLFPPKPKDTLMISRTPEVTCVVVDVSHEDPEVKFNWYVDGVEVHNAKTKPREEQYNSTYRVVSVLTVLHQDWLNGKEYKCKVSNKALPVPIEKTISKAKGQPREPQVYTLPPSREEMTKNQVSLTCLVKGFYPSDIAVEWESNGQPENNYKTTPPVLDSDGSFFLYSKLTVDKSRWQQGNVFSCSVMHEALHNHYTQKSLSLSPGK
B5: ActRIIb-hFc (R64, 23-131) (Fc fusion)
chain: EAETRECIYYNANWELERTNQSGLERCEGEQDKRLHCYASWRNSSGTIELVKKGCWLDDFNCYDRQECVATEENPQVYFCCCEGNFCNERFTHLPEAGGPEVTYEPPPTGGGTHTCPPCPAPELLGGPSVFLFPPKPKDTLMISRTPEVTCVVVDVSHEDPEVKFNWYVDGVEVHNAKTKPREEQYNSTYRVVSVLTVLHQDWLNGKEYKCKVSNKALPVPIEKTISKAKGQPREPQVYTLPPSREEMTKNQVSLTCLVKGFYPSDIAVEWESNGQPENNYKTTPPVLDSDGSFFLYSKLTVDKSRWQQGNVFSCSVMHEALHNHYTQKSLSLSPGK
B6: ActRIIb-hFc (R64, 22-131) (Fc fusion)
chain: GEAETRECIYYNANWELERTNQSGLERCEGEQDKRLHCYASWRNSSGTIELVKKGCWLDDFNCYDRQECVATEENPQVYFCCCEGNFCNERFTHLPEAGGPEVTYEPPPTGGGTHTCPPCPAPELLGGPSVFLFPPKPKDTLMISRTPEVTCVVVDVSHEDPEVKFNWYVDGVEVHNAKTKPREEQYNSTYRVVSVLTVLHQDWLNGKEYKCKVSNKALPVPIEKTISKAKGQPREPQVYTLPPSREEMTKNQVSLTCLVKGFYPSDIAVEWESNGQPENNYKTTPPVLDSDGSFFLYSKLTVDKSRWQQGNVFSCSVMHEALHNHYTQKSLSLSPGK
B7: ActRIIb-hFc (R64, 24-131) (Fc fusion)
chain: AETRECIYYNANWELERTNQSGLERCEGEQDKRLHCYASWRNSSGTIELVKKGCWLDDFNCYDRQECVATEENPQVYFCCCEGNFCNERFTHLPEAGGPEVTYEPPPTGGGTHTCPPCPAPELLGGPSVFLFPPKPKDTLMISRTPEVTCVVVDVSHEDPEVKFNWYVDGVEVHNAKTKPREEQYNSTYRVVSVLTVLHQDWLNGKEYKCKVSNKALPVPIEKTISKAKGQPREPQVYTLPPSREEMTKNQVSLTCLVKGFYPSDIAVEWESNGQPENNYKTTPPVLDSDGSFFLYSKLTVDKSRWQQGNVFSCSVMHEALHNHYTQKSLSLSPGK
B8: ActRIIb-hFc (R64, 20-132) (Fc fusion)
chain: GRGEAETRECIYYNANWELERTNQSGLERCEGEQDKRLHCYASWRNSSGTIELVKKGCWLDDFNCYDRQECVATEENPQVYFCCCEGNFCNERFTHLPEAGGPEVTYEPPPTAGGGTHTCPPCPAPELLGGPSVFLFPPKPKDTLMISRTPEVTCVVVDVSHEDPEVKFNWYVDGVEVHNAKTKPREEQYNSTYRVVSVLTVLHQDWLNGKEYKCKVSNKALPVPIEKTISKAKGQPREPQVYTLPPSREEMTKNQVSLTCLVKGFYPSDIAVEWESNGQPENNYKTTPPVLDSDGSFFLYSKLTVDKSRWQQGNVFSCSVMHEALHNHYTQKSLSLSPGK

How the values were obtained:
Experiment in all cases: cell-based or functional assay
[1] = target: T1, Activin A (UniProt P08476 311-426)
T1 sequence (looked up): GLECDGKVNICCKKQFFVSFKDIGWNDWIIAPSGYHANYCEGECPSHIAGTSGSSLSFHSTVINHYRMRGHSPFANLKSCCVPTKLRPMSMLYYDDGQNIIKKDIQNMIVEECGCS

[2] = target: T2, GDF11 (UniProt O95390 299-407)
T2 sequence (looked up): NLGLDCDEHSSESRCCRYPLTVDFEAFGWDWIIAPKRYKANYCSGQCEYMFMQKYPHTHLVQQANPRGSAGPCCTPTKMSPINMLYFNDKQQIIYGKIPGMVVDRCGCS

[3] = target: T1, Activin A; remark: listed apart in the source
[4] = target: T2, GDF11; remark: listed apart in the source

| Binder | IC50 (ng/mL), reporter gene assay, conditioned media [1] [ng/mL] | IC50 (ng/mL), reporter gene assay, conditioned media [2] [ng/mL] | IC50 (ng/mL), reporter gene assay, conditioned media [3] [ng/mL] | IC50 (ng/mL), reporter gene assay, conditioned media [4] [ng/mL] |
| --- | --- | --- | --- | --- |
| B1 | 2 | 45 | – | – |
| B2 | 158 | 130 | – | – |
| B3 | 44 | 120 | 201 | 183 |
| B4 | – | – | 325 | 121 |
| B5 | – | – | 43 | 60 |
| B6 | – | – | 100 | 71 |
| B7 | – | – | 105 | 69 |
| B8 | 32 | 87 | – | – |
